Measurements taken from IntAct's records for PubMed 19749176.

B1: Serine/threonine-protein phosphatase PP1-1 (Saccharomyces cerevisiae), P20604 (parent)
chain: MVSRGPDEWLETIKKCQALTENEMKQLCEMVKELLMEESNIQPVQTPVTVCGDIHGQFHDLLELFRTAGGFPDDINYIFLGDYVDRGYYSLETFTLLMCLKVKYPAKITLVRGNHESRQITQVYGFYEECLNKYGSTTVWKYCCQVFDFLTLAAIIDGKILCVHGGLSPEIRMLDQIRVLSRAQEVPHEGGFSDLLWSDPDNVEAWQVSPRGAGWLFGSKVAREFNHVNGLNLIARAHQLVMEGFKYHFPEKDVVTVWSAPNYCYRCGNVASVMKVDEDLEPTFKIFSAVPDDYIRESTANHNNQRAGYFL
partner: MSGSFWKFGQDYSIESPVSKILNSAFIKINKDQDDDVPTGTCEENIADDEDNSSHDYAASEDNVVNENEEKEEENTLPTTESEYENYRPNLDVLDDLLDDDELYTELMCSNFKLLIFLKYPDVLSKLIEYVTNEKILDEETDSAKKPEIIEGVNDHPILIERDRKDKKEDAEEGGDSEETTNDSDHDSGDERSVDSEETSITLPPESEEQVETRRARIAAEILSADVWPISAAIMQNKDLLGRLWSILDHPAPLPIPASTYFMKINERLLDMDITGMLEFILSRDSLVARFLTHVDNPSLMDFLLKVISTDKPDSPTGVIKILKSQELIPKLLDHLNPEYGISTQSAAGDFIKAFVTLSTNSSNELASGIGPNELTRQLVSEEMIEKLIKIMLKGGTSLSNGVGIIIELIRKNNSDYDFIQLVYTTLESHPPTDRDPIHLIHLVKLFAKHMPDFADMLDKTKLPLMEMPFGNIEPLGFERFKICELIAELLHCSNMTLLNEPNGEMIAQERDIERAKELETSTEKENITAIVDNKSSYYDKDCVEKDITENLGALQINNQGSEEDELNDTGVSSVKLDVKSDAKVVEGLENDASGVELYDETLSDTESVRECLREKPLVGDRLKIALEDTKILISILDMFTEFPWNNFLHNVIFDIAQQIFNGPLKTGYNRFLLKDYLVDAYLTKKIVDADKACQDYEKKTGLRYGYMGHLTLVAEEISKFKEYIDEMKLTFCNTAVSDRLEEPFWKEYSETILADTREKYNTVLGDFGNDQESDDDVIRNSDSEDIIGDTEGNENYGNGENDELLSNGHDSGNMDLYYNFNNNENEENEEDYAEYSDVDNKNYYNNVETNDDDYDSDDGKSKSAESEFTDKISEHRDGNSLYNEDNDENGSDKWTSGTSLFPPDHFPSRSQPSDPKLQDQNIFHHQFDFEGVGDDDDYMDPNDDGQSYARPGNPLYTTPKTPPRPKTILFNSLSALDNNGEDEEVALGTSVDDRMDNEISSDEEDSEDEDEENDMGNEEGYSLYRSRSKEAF
B2: Serine/threonine-protein phosphatase PP1-1 (Saccharomyces cerevisiae), P20604 (parent)
chain: B1 chain
partner: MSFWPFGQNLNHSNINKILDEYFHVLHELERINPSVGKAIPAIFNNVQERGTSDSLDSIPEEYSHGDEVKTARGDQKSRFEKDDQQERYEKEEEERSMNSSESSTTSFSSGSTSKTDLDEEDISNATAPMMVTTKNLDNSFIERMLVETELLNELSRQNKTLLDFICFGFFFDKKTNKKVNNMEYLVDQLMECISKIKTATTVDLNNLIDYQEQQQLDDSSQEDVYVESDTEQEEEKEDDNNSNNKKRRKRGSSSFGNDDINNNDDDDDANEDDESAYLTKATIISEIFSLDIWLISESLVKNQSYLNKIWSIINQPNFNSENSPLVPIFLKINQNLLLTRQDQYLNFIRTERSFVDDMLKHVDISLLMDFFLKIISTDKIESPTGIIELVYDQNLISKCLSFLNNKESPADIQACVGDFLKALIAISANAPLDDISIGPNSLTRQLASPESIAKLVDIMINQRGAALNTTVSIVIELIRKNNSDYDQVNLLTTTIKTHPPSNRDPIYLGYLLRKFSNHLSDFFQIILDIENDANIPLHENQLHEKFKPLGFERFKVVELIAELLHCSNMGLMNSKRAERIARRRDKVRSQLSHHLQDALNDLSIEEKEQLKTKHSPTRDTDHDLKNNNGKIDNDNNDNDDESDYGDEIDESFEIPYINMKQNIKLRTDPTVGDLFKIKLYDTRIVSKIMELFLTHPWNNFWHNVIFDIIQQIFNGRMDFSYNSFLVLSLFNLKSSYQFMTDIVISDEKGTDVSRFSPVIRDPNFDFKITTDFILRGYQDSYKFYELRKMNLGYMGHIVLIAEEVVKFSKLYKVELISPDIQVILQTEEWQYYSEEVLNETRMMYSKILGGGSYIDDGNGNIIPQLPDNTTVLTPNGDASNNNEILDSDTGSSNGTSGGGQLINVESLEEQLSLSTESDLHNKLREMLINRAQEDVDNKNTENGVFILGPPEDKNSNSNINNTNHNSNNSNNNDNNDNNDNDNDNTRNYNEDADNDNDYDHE

Variants of: B1
Settings: with sa190_yeast SAP190, P36123

Row | Variant | effect of a mutation on the interaction
1 | MVSRGPDEWLETIKKCQALTENEMKQLCEMVKELLMAASNIQPVQTPVTVCGDIHGQFHDLLELFRTAGGFPDDINYIFLGDYVDRGYYSLETFTLLMCLKVKYPAKITLVRGNHESRQITQVYGFYEECLNKYGSTTVWKYCCQVFDFLTLAAIIDGKILCVHGGLSPEIRMLDQIRVLSRAQEVPHEGGFSDLLWSDPDNVEAWQVSPRGAGWLFGSKVAREFNHVNGLNLIARAHQLVMEGFKYHFPEKDVVTVWSAPNYCYRCGNVASVMKVDEDLEPTFKIFSAVPDDYIRESTANHNNQRAGYFL [E37A;E38A] | decreasing interaction

Variants of: B2
Settings: with sa155_yeast SAP155, P43612

Row | Variant | effect of a mutation on the interaction
2 | MVSRGPDEWLETIKKCQALTENEMKQLCEMVKELLMAASNIQPVQTPVTVCGDIHGQFHDLLELFRTAGGFPDDINYIFLGDYVDRGYYSLETFTLLMCLKVKYPAKITLVRGNHESRQITQVYGFYEECLNKYGSTTVWKYCCQVFDFLTLAAIIDGKILCVHGGLSPEIRMLDQIRVLSRAQEVPHEGGFSDLLWSDPDNVEAWQVSPRGAGWLFGSKVAREFNHVNGLNLIARAHQLVMEGFKYHFPEKDVVTVWSAPNYCYRCGNVASVMKVDEDLEPTFKIFSAVPDDYIRESTANHNNQRAGYFL [E37A;E38A] | decreasing interaction
